Patent publication EP0574621A1
Like-named read-outs stand apart in the source and are kept apart here.

Experiments:
von Willebrand factor [1] = target: von Willebrand factor (UniProt P04275)
von Willebrand factor [2] = target: von Willebrand factor (UniProt P04275); assay: cell-based or functional assay
von Willebrand factor [3] = target: von Willebrand factor (UniProt P04275); assay: ratio of IC50 values from the competitive radiolabelled botrocetin binding assay
von Willebrand factor [4] = target: von Willebrand factor (UniProt P04275); assay: competitive inhibition of 125I-two-chain botrocetin binding to vWF in solution by unlabeled two-chain botrocetin; vWF captured on 2-2-9 IgG coated wells

Substance | IC50 (von Willebrand factor [1]) | Half maximal binding capacity (BM50) (von Willebrand factor [2]) | concentration giving maximal vWF binding to glycoprotein Ib (von Willebrand factor [2]) | minimum concentration necessary to induce vWF binding to glycoprotein Ib (von Willebrand factor [2]) | fold higher affinity than one-chain botrocetin (von Willebrand factor [3]) | IC50 (von Willebrand factor [4]) | fold greater activity (BM50) than one-chain botrocetin (von Willebrand factor [2])
one-chain botrocetin | 55 µg/mL | 5.5 µg/mL | 17 µg/mL | 1 µg/mL | – | – | –
two-chain botrocetin | – | 0.16 µg/mL | – | – | 32 fold | 1.7 µg/mL | 34 fold
